Test results published in patent US20200308303A1.

Key:
[1] = biological target: human ADAMTS13 (A Disintegrin And Metalloproteinase with a ThromboSpondin type 1 motif, member 13) (human) (UniProt Q76LX8); assay: cell-based or functional assay
[2] = biological target: human ADAMTS13 (A Disintegrin And Metalloproteinase with a ThromboSpondin type 1 motif, member 13) (human) (UniProt Q76LX8); assay: sandwich ELISA: dilution series of coated antibody (10 to 0.02 µg/mL), constant 15% normal human plasma; half maximal binding by nonlinear regression

Sequence of human ADAMTS13 (A Disintegrin And Metalloproteinase with a ThromboSpondin type 1 motif, member 13) (human) (Q76LX8 75-1427): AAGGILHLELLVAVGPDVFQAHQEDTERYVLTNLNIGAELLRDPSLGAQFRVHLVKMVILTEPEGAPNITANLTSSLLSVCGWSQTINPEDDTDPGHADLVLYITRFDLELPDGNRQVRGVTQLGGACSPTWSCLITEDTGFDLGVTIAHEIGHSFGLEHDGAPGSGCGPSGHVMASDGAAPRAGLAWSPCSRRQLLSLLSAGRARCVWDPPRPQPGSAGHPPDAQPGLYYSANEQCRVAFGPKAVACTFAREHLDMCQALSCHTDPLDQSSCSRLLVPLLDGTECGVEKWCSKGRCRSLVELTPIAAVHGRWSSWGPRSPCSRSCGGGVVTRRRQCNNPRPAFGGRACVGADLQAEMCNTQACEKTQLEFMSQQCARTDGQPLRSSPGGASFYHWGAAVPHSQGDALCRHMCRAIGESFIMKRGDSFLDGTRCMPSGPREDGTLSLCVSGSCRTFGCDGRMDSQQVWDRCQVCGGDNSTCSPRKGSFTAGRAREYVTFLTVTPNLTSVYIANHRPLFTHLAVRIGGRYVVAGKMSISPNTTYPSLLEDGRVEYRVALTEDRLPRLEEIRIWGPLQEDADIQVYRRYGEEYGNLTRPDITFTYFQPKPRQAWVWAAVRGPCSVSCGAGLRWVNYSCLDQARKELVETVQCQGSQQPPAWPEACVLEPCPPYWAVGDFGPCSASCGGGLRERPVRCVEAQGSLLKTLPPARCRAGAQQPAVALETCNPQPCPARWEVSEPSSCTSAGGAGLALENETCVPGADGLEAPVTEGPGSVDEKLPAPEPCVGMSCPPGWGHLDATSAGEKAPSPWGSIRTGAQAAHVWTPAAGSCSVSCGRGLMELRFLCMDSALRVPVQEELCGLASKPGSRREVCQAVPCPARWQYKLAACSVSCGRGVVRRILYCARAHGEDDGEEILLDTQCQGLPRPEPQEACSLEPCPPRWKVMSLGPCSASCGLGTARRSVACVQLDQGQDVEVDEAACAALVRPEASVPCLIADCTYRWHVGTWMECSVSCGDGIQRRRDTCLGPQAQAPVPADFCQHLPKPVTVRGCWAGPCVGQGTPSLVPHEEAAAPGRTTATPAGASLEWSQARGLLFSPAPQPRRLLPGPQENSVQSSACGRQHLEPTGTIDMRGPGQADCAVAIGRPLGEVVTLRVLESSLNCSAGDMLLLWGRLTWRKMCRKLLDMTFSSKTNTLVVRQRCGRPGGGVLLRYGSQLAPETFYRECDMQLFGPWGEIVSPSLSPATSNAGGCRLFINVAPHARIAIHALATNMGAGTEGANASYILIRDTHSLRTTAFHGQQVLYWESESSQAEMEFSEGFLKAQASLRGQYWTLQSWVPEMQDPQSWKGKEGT

half maximal inhibitory concentration (IC50) of ADAMTS13 activity in normal human plasma, FRETS-VWF73 assay [1]: 0.47 µg/mL
half-maximal binding concentration (EC50) of coated antibody [2]: 0.51 µg/mL
B1: monoclonal anti-ADAMTS13 antibody 17C7 (antibody, V domains shown)
VH: EVQLVESGGDLVKSGGSLKLSCAASGFIFSNYAMSWVRQTPEKRLEWGATITTGGFYTFYSDSVKGRFTISRDNAKNTLYLQMSSLRSEDTAMYYCARHRYDDYYALDYWGQGTSVTVSS
VL: ENVLTQSPAIMSTSPGEKVTMTCNVSSSVSYMRWFQQKSSTSPKLWIYDTSKLASGVPGRFSGSGSGHSYSLTISSMEADDVATYYCFQGNGYPLTFGAGTKLELK
modifications: Biotinylated when used as detector; the site is not stated and the letters cannot carry it.
